Data on 24 sequences can be found in the Immune Epitope Database (IEDB).

The first experiment deals with HLA-A*01:01. The experiment can be described thus: IEDB peptide-MHC binding, purified MHC/competitive/radioactivity; ≥ and ≤ were set here for values at or beyond the usual limits of such assays. Particulars: source organism: Homo sapiens.
For ATDGKVLLW, the IC50 (commonly the concentration that gives 50% inhibition) came to 191 nM.

As for DTEFPNFKY, the IC50 worked out at 80.8 nM.

As to FLWPEAFLY, the IC50 worked out at 1.3 nM.

For the sequence KLDLLEQEY, the IC50 amounted to 70.6 nM.

For YVPEHWEYY, the IC50 was 11.1 nM.

Another experiment concerns the target HLA-B*54:01. Described as above. Particulars: source organism: Homo sapiens.
As for FPKETFEGP, the IC50 was determined as 16.4 nM.

Regarding FVEILIPVA, the IC50 stood at 12.2 nM.

Take SAPVNFISA: the IC50 worked out at 16.6 nM.

As to YPVYQPVGP, the IC50 came to 1.7 nM.

Another experiment concerns the target HLA-A*29:02. Described as above. Particulars: source organism: Homo sapiens.
In the case of FYPELKLAY, the 50% inhibitory concentration (IC50) is 0.2 nM.

For GLPDLVAKY, the IC50 is 29.7 nM.

Consider HFLDRHLVF, for which the IC50 came to 1.6 nM.

Take LPLDIQIFY: the IC50 came out at 4.6 nM.

Take YLPALKVEY: the IC50 was 2.6 nM.

The target of the next experiment is HLA-B*51:01. Described as above. Particulars: source organism: Homo sapiens.
Regarding DAPLNIRSI, the IC50 came out at 6.5 nM.

For the sequence DAYPQRIKF, the IC50 was found to be 31 nM.

As to DGLLRVLTV, the IC50 turned out to be 0.2 nM.

With DGLRDLPSI, the IC50 was 12.6 nM.

With DGYVVKETI, the IC50 was determined as 13.4 nM.

With IIYPTPKVV, the IC50 was found to be 38 nM.

Consider TPESKIRFV, for which the IC50 stood at 84.8 nM.

As for VALLVGEKV, the IC50 was found to be 144 nM.

In the case of VPPLVPKVL, the IC50 came out at 56.3 nM.

In the case of YIIEREPLI, the IC50 turned out to be 1790 nM.
